Results taken from US20240270821A1, “GIP/GLP1/GCG TRI-RECEPTOR AGONISTS AND USES THEREOF” (priority 2023, published 2024).
Substitutions are numbered along the chain they refer to.

T1: human GIP receptor (human) (UniProt P48546)
T1 sequence (looked up): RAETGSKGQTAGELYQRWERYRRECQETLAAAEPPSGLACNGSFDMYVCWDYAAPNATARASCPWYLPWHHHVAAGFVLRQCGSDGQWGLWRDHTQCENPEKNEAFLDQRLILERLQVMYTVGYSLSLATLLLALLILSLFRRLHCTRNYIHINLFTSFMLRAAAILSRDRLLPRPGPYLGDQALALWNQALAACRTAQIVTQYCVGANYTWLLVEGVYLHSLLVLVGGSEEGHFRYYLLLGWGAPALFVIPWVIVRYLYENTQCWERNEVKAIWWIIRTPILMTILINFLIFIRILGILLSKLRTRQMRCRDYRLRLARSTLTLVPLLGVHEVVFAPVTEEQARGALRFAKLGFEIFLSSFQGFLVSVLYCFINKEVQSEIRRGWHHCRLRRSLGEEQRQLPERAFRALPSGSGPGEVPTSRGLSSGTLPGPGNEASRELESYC

B1: Example 121 (peptide)
chain: YXQGTFTSDFSXXLDKKAQXAFIEWLLEGGPSSGAPPPEGS
modifications: synthetic construct; SITE 2: note = 2-Aminoisobutyric Acid; SITE 12: note = L-ornithine; SITE 13: note = alpha-methyl-leucine; SITE 17: note = Lysine is chemically modified through conjugation of the epsilon-amino group of the Lysine side chain with (2-[2-(2-Amino-ethoxy)-ethoxy]-acetyl)-(gamma-Glu)
B2: Example 126 (peptide)
chain: B1 chain with P31H
modifications: synthetic construct; SITE 2: note = 2-Aminoisobutyric Acid; SITE 12: note = L-ornithine; SITE 13: note = alpha-methyl-leucine; SITE 17: note = Lysine is chemically modified through conjugation of the epsilon-amino group of the Lysine side chain with (2-[2-(2-Amino-ethoxy)-ethoxy]-acetyl)-(gamma-Glu)
B3: Example 125 (peptide)
chain: B1 chain with P31E
modifications: synthetic construct; SITE 2: note = 2-Aminoisobutyric Acid; SITE 12: note = L-ornithine; SITE 13: note = alpha-methyl-leucine; SITE 17: note = Lysine is chemically modified through conjugation of the epsilon-amino group of the Lysine side chain with (2-[2-(2-Amino-ethoxy)-ethoxy]-acetyl)-(gamma-Glu)
B4: Example 114 (peptide)
chain: YXQGTFTSDXSRXLDKKAQXAFIEYLLEXGPSSGAPPPSGE
modifications: synthetic construct; SITE 2: note = 2-Aminoisobutyric Acid; SITE 10: note = 3-(4-Pyridyl)-L-alanine; SITE 13: note = alpha-methyl-leucine; SITE 17: note = Lysine is chemically modified through conjugation of the epsilon-amino group of the Lysine side chain with (2-[2-(2-Amino-ethoxy)-ethoxy]-acetyl)
B5: Example 137 (peptide)
chain: B1 chain with P37X, E39S, S41E
modifications: synthetic construct; SITE 2: note = 2-Aminoisobutyric Acid; SITE 12: note = L-ornithine; SITE 13: note = alpha-methyl-leucine; SITE 17: note = Lysine is chemically modified through conjugation of the epsilon-amino group of the Lysine side chain with (2-[2-(2-Amino-ethoxy)-ethoxy]-acetyl)-(gamma-Glu)
B6: Example 141 (peptide)
chain: B1 chain with X12K, W25Y, E39S
modifications: synthetic construct; SITE 2: note = 2-Aminoisobutyric Acid; SITE 13: note = alpha-methyl-leucine; SITE 17: note = Lysine is chemically modified through conjugation of the epsilon-amino group of the Lysine side chain with (2-[2-(2-Amino-ethoxy)-ethoxy]-acetyl)-(gamma-Glu)-CO-(CH2) 16-CO2H; SITE 20: n
B7: Example 117 (peptide)
chain: B4 chain with X10F, R12X, X29A, A35E
modifications: synthetic construct; SITE 2: note = 2-Aminoisobutyric Acid; SITE 12: note = L-ornithine; SITE 13: note = alpha-methyl-leucine; SITE 17: note = Lysine is chemically modified through conjugation of the epsilon-amino group of the Lysine side chain with (2-[2-(2-Amino-ethoxy)-ethoxy]-acetyl)2-(gamma-Glu)
B8: Example 143 (peptide)
chain: B1 chain with X12R, W25Y, E39S
modifications: synthetic construct; SITE 2: note = 2-Aminoisobutyric Acid; SITE 13: note = alpha-methyl-leucine; SITE 17: note = Lysine is chemically modified through conjugation of the epsilon-amino group of the Lysine side chain with (2-[2-(2-Amino-ethoxy)-ethoxy]-acetyl)-(gamma-Glu)-CO-(CH2) 16-CO2H; SITE 20: n
B9: Example 154 (peptide)
chain: B1 chain with F10X, W25Y, E28A, A35E, E39S
modifications: Aib, 4Pal, Orn, αMeL; lipidated Lys; C-terminal amide; synthetic construct; SITE 2: note = 2-Aminoisobutyric Acid; SITE 10: note = 3-(4-Pyridyl)-L-alanine; SITE 12: note = L-ornithine; SITE 13: note = alpha-methyl-leucine; SITE 17: note = Lysine is chemically modified through conjugation of the epsilon-amino group of the Lysine side chain with (2-[2-(2-
B10: Example 155 (peptide)
chain: B1 chain with W25Y, G29A, A35E, E39S
modifications: non-natural residues; lysine acylated with AEEA linker C18 diacid; C-amide; synthetic construct; SITE 2: note = 2-Aminoisobutyric Acid; SITE 12: note = L-ornithine; SITE 13: note = alpha-methyl-leucine; SITE 17: note = Lysine is chemically modified through conjugation of the epsilon-amino group of the Lysine side chain with (2-[2-(2-Amino-ethoxy)-ethoxy]-acetyl)2-(gamma-Glu)
B11: Example 148 (peptide)
chain: B1 chain with X12R, W25Y, P31E, E39S
modifications: Aib, αMeL; lysine acylated C18 diacid; C-terminal amide; synthetic construct; SITE 2: note = 2-Aminoisobutyric Acid; SITE 13: note = alpha-methyl-leucine; SITE 17: note = Lysine is chemically modified through conjugation of the epsilon-amino group of the Lysine side chain with (2-[2-(2-Amino-ethoxy)-ethoxy]-acetyl)-(gamma-Glu)-CO-(CH2) 16-CO2H; SITE 20: n

Tests used:
Experiment in all cases: cell-based or functional assay
[1] = target: human glucagon receptor (human) (UniProt P47871)
human glucagon receptor (human), sequence (P47871 26-477): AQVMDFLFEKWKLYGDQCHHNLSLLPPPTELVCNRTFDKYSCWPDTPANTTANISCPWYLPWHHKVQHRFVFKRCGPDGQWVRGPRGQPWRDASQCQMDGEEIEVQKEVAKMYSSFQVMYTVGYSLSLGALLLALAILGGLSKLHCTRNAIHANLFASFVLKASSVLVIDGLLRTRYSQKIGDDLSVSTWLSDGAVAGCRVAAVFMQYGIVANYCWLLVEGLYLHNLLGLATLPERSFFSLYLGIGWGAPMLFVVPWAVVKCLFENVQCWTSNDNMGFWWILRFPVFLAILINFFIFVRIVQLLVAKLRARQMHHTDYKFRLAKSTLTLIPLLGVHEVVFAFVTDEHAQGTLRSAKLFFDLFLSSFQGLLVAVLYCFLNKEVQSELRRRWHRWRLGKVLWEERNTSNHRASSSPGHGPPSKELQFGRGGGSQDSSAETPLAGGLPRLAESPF

[2] = target: T1, human GIP receptor (human)
[3] = target: hGLP-1R (Homo sapiens, UniProt P43220)
hGLP-1R, sequence (P43220 24-463): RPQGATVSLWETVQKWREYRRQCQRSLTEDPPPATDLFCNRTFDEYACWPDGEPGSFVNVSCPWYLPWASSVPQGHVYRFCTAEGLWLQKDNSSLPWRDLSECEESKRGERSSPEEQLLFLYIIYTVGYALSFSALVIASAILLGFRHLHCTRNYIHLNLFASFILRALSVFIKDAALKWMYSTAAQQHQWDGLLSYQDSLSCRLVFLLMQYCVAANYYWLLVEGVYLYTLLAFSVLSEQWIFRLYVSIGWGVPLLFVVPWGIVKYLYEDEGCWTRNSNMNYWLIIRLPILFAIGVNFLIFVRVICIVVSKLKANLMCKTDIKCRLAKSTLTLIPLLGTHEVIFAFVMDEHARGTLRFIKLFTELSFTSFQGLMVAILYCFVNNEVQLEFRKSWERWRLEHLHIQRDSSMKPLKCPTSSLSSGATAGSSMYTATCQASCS

[4] = target: human GLP-1R (SNAP-GLP-1R expressed in HEK293 cells) (human) (UniProt P43220)
human GLP-1R (SNAP-GLP-1R expressed in HEK293 cells) (human), sequence (P43220 24-463): as above

Binder | Relative cAMP EC50 [1] [nM] | cAMP Rel EC50, nM (in the presence of 1% HSA) [1] [nM] | Relative cAMP EC50 [2] [nM] | cAMP Rel EC50, nM (in the presence of 1% HSA) [2] [nM] | Relative cAMP EC50 [3] [nM] | cAMP Rel EC50, nM (in the presence of 1% HSA) [3] [nM] | GLP1R Internalization EC50 [4] [nM] | Internalization % TOP [4] [%] | Relative cAMP EC50, nM (0.1% casein) [1] [nM] | cAMP Rel EC50, nM (1% HSA) [1] [nM] | Relative cAMP EC50, nM (0.1% casein) [2] [nM] | cAMP Rel EC50, nM (1% HSA) [2] [nM] | Relative cAMP EC50, nM (0.1% casein) [3] [nM] | cAMP Rel EC50, nM (1% HSA) [3] [nM]
B1 | 4.89 | 442 | 0.172 | 24.6 | 2.38 | 348 | 38.1 | 46.3 | – | – | – | – | – | –
B2 | 6.81 | 1120 | 0.264 | 40.3 | 3.97 | 838 | 63.2 | 38.8 | – | – | – | – | – | –
B3 | 3.97 | 901 | 0.503 | 67.8 | 4.12 | 1050 | 86.4 | 42.6 | – | – | – | – | – | –
B4 | – | 1120 | – | 19.6 | – | 1370 | 47.2 | 62.9 | – | – | – | – | – | –
B5 | 4.43 | 905 | 0.269 | 23.7 | 3.18 | 447 | 60.2 | 47.7 | – | – | – | – | – | –
B6 | 1.77 | 877 | 0.21 | 62.1 | 1.96 | 562 | 95.3 | 64.1 | – | – | – | – | – | –
B7 | 4.75 | 867 | 0.267 | 29.9 | 6.4 | 524 | 45.5 | 51 | – | – | – | – | – | –
B8 | 4.51 | 1690 | 0.211 | 63.9 | 2.44 | 594 | 337 | 43 | – | – | – | – | – | –
B9 | – | – | – | – | – | – | 47.7 | 65.9 | 8.72 | 1040 | 0.227 | 29.7 | 4.94 | 569
B10 | – | – | – | – | – | – | 85.1 | 54.5 | 5.68 | 1310 | 0.177 | 18.9 | 2.98 | 503
B11 | – | – | – | – | – | – | 95.5 | 37.4 | 3.92 | 1330 | 0.352 | 74.2 | 2.82 | 870
